# Changes are numbered by the printed parent chain. Numbers in names are those of the source.
# B1: CODA334: engineered receptor: L131Q in SEQ ID NO: 33 (protein)
# chain: MRCSPGGVWLALAASLLHVSLQGEFQRKLYKELVKNYNPLERPVANDSQPLTVYFSLSLLQIMDVDEKNQVLTTNIWLQMSWTDHYLQWNVSEYPGVKTVRFPDGQIWKPDILLYNSADERFDATFHTNVQVNSSGHCQYLPPGIFKSSCPMDLKNFPMDVQTCKLKFGSWSYGGWSLDLQMQEADISGYIPNGEWDLVGIPGKRSERFYECCKEPYPDVTFTVTMRRRMGYYLIQMYIPSLLIVILSWISFWINMDAAPARVGLGITTVLTMTTQSSGSRASLPKVSYVKAIDIWMAVCLLFVFSALLEYAAVNFVSRQHKELLRFRRKRRHHKSPMLNLFQEDEAGEGRFNFSAYGMGPACLQAKDGISVKGANNSNTTNPPPAPSKSPEEMRKLFIQRAKKIDKISRIGFPMAFLIFNMFYWIIYKIVRREDVHNQ
# modifications: synthetic sequence of chimeric LGIC
# B2: CODA335: engineered receptor: L131T in SEQ ID NO: 33 (protein)
# chain: B1 chain with Q131T
# modifications: synthetic sequence of chimeric LGIC
# Tested on: engineered chimeric receptor SEQ ID NO: 33 and its mutants (human α7-nAChR ligand binding domain / human GlyRα1 ion pore domain) in Lenti-X 293T cells
# Assay: YFP fluorescence quenching anion reporter plate reader assay (percent quench, EC50)
# Format: cell-based
# Settings: for YFP fluorescence quenching using CNL001 (percent quench): receptor named in row; for YFP fluorescence quenching using Facinicline, 30 nM fac: ligand Facinicline 30 nM; for YFP fluorescence quenching using Facinicline, 300 nM fac: ligand Facinicline 300 nM; for YFP fluorescence quenching using Facinicline, 30 uM fac: ligand Facinicline 30 uM; for YFP fluorescence quenching using TC-6987, 1 uM tc6987: ligand TC-6987 1 uM; for YFP fluorescence quenching using TC-6987, 10 uM tc6987: ligand TC-6987 10 uM; for YFP fluorescence quenching using TC-6987, 500 uM tc6987: ligand TC-6987 500 uM; for YFP fluorescence quenching using Varenicline, 3 nM var: ligand Varenicline 3 nM; for YFP fluorescence quenching using Varenicline, 30 nM var: ligand Varenicline 30 nM; for YFP fluorescence quenching using Varenicline, 300 nM var: ligand Varenicline 300 nM; for YFP fluorescence quenching using Varenicline, 500 nM var: ligand Varenicline 500 nM; for YFP fluorescence quenching using Varenicline, 1 uM var: ligand Varenicline 1 uM
# How it was run: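 Percent quench compares mean YFP signal over the final 10 s with the 15 s baseline before ligand, added in iodide-containing extracellular solution (pH 7.2). Cells were LX293T carrying a YFP anion reporter, transiently transfected with the channel construct; plates were preincubated 30 min at 37 °C.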
# [1] = 1 nM CNL001, first column so headed
# [2] = 1 nM CNL001, second column so headed
# [3] = 3 nM brd (TC-5619/Bradanicline)
# [4] = 10 nM CNL001, first column so headed
# [5] = 10 nM CNL001, second column so headed
# [6] = 30 nM brd (TC-5619/Bradanicline)
# [7] = 50 nM CNL001, first column so headed
# [8] = 50 nM CNL001, second column so headed
# [9] = 100 nM CNL001, first column so headed
# [10] = 100 nM CNL001, second column so headed
# [11] = 300 nM brd (TC-5619/Bradanicline)
# [12] = 1 uM CNL001, first column so headed
# [13] = 1 uM CNL001, second column so headed
molecule,measurement,setting,value
B1,YFP fluorescence quenching using CNL001 (percent quench),[1],76.165%
same,YFP fluorescence quenching using CNL001 (percent quench),[2],78.463%
same,YFP fluorescence quenching using TC-5619/Bradanicline (percent quench),[3],41.92%
same,YFP fluorescence quenching using CNL001 (percent quench),[4],79.349%
same,YFP fluorescence quenching using CNL001 (percent quench),[5],78.238%
same,YFP fluorescence quenching using TC-6683 (percent quench),30 nM TC-6683,−17.99%
same,YFP fluorescence quenching using TC-5619/Bradanicline (percent quench),[6],63.65%
same,YFP fluorescence quenching using CNL001 (percent quench),[7],80.221%
same,YFP fluorescence quenching using CNL001 (percent quench),[8],81.789%
same,YFP fluorescence quenching using ABT-126 (percent quench),50 nM abt (ABT-126),23.65%
same,YFP fluorescence quenching using CNL001 (percent quench),[9],82%
same,YFP fluorescence quenching using CNL001 (percent quench),[10],80.766%
same,YFP fluorescence quenching (percent quench),100 nM CNL002,49.9%
same,YFP fluorescence quenching using ABT-126 (percent quench),100 nM abt (ABT-126),61.83%
same,YFP fluorescence quenching using AZD-0328 (percent quench),100 nM azd0328,80.55%
same,YFP fluorescence quenching using TC-6683 (percent quench),300 nM TC-6683,−23.26%
same,YFP fluorescence quenching using ABT-126 (percent quench),300 nM abt (ABT-126),76.44%
same,YFP fluorescence quenching using AZD-0328 (percent quench),300 nM azd0328,83.15%
same,YFP fluorescence quenching using TC-5619/Bradanicline (percent quench),[11],64.85%
same,YFP fluorescence quenching using CNL001 (percent quench),[12],81.707%
same,YFP fluorescence quenching using CNL001 (percent quench),[13],82.665%
same,YFP fluorescence quenching (percent quench),1 uM CNL002,80.72%
same,YFP fluorescence quenching using ABT-126 (percent quench),1 uM abt (ABT-126),77.68%
same,YFP fluorescence quenching using TC-6683 (percent quench),3 uM TC-6683,−18.84%
same,YFP fluorescence quenching (percent quench),10 uM ach (acetylcholine),−2.63%
same,YFP fluorescence quenching (percent quench),30 uM CNL002,80.97%
same,YFP fluorescence quenching using TC-6683 (percent quench),30 uM TC-6683,−16.92%
same,YFP fluorescence quenching (percent quench),30 uM ach (acetylcholine),30.06%
same,YFP fluorescence quenching using AZD-0328 (percent quench),30 uM azd0328,82.53%
same,YFP fluorescence quenching using TC-6683 (percent quench),100 uM TC-6683,−15.59%
same,YFP fluorescence quenching (percent quench),100 uM ach (acetylcholine),71.27%
same,YFP fluorescence quenching (percent quench),1 mM ach (acetylcholine),79.66%
same,YFP fluorescence quenching (percent quench),3 mM ach (acetylcholine),74.9%
same,"YFP fluorescence quenching using Facinicline, 30 nM fac",,83.07
same,"YFP fluorescence quenching using Facinicline, 100 nM fac",ligand Facinicline 100 nM,85.36
same,"YFP fluorescence quenching using Facinicline, 300 nM fac",,84.19
same,"YFP fluorescence quenching using Facinicline, 30 uM fac",,82.75
same,"YFP fluorescence quenching using TC-6987, 1 uM tc6987",,74.1
same,"YFP fluorescence quenching using TC-6987, 10 uM tc6987",,81.7
same,"YFP fluorescence quenching using TC-6987, 500 uM tc6987",,80.18
same,"YFP fluorescence quenching using Varenicline, 3 nM var",first column,−5.192
same,"YFP fluorescence quenching using Varenicline, 3 nM var",second column,−4.327
same,"YFP fluorescence quenching using Varenicline, 30 nM var",first column,−0.688
same,"YFP fluorescence quenching using Varenicline, 30 nM var",second column,0.672
same,"YFP fluorescence quenching using Varenicline, 300 nM var",first column,75.189
same,"YFP fluorescence quenching using Varenicline, 300 nM var",second column,74.923
same,"YFP fluorescence quenching using Varenicline, 500 nM var",first column,79.048
same,"YFP fluorescence quenching using Varenicline, 500 nM var",second column,80.337
same,"YFP fluorescence quenching using Varenicline, 1 uM var",first column,79.766
same,"YFP fluorescence quenching using Varenicline, 1 uM var",second column,76.836
B2,YFP fluorescence quenching using CNL001 (percent quench),[1],−9.942%
same,YFP fluorescence quenching using CNL001 (percent quench),[2],−0.475%
same,YFP fluorescence quenching using TC-5619/Bradanicline (percent quench),1 nM brd (TC-5619/Bradanicline),−2.39%
same,YFP fluorescence quenching using TC-5619/Bradanicline (percent quench),[3],−4.08%
same,YFP fluorescence quenching using CNL001 (percent quench),[4],17.889%
same,YFP fluorescence quenching using CNL001 (percent quench),[5],38.46%
same,YFP fluorescence quenching using TC-5619/Bradanicline (percent quench),10 nM brd (TC-5619/Bradanicline),−3.3%
same,YFP fluorescence quenching using TC-6683 (percent quench),30 nM TC-6683,−13.84%
same,YFP fluorescence quenching using TC-5619/Bradanicline (percent quench),[6],−9.69%
same,YFP fluorescence quenching using CNL001 (percent quench),[7],61.741%
same,YFP fluorescence quenching using CNL001 (percent quench),[8],69.159%
same,YFP fluorescence quenching using ABT-126 (percent quench),50 nM abt (ABT-126),−18%
same,YFP fluorescence quenching using CNL001 (percent quench),[9],73.635%
same,YFP fluorescence quenching using CNL001 (percent quench),[10],76.092%
same,YFP fluorescence quenching (percent quench),100 nM CNL002,−14.53%
same,YFP fluorescence quenching using ABT-126 (percent quench),100 nM abt (ABT-126),−16.39%
same,YFP fluorescence quenching using AZD-0328 (percent quench),100 nM azd0328,11.33%
same,YFP fluorescence quenching using TC-5619/Bradanicline (percent quench),100 nM brd (TC-5619/Bradanicline),−1.05%
same,YFP fluorescence quenching using TC-6683 (percent quench),300 nM TC-6683,−20.66%
same,YFP fluorescence quenching using ABT-126 (percent quench),300 nM abt (ABT-126),−15.05%
same,YFP fluorescence quenching using AZD-0328 (percent quench),300 nM azd0328,44.15%
same,YFP fluorescence quenching using TC-5619/Bradanicline (percent quench),[11],10.53%
same,YFP fluorescence quenching using CNL001 (percent quench),[12],80.633%
same,YFP fluorescence quenching using CNL001 (percent quench),[13],79.637%
same,YFP fluorescence quenching (percent quench),1 uM CNL002,6.45%
same,YFP fluorescence quenching using ABT-126 (percent quench),1 uM abt (ABT-126),−5.56%
same,YFP fluorescence quenching using TC-5619/Bradanicline (percent quench),1 uM brd (TC-5619/Bradanicline),34.72%
same,YFP fluorescence quenching using TC-6683 (percent quench),3 uM TC-6683,−17.86%
same,YFP fluorescence quenching (percent quench),10 uM ach (acetylcholine),−9.13%
same,YFP fluorescence quenching (percent quench),30 uM CNL002,57.43%
same,YFP fluorescence quenching using TC-6683 (percent quench),30 uM TC-6683,−18.91%
same,YFP fluorescence quenching using AZD-0328 (percent quench),30 uM azd0328,80.96%
same,YFP fluorescence quenching using TC-6683 (percent quench),100 uM TC-6683,−16.88%
same,YFP fluorescence quenching (percent quench),100 uM ach (acetylcholine),−9.29%
same,YFP fluorescence quenching (percent quench),1 mM ach (acetylcholine),0.57%
same,YFP fluorescence quenching (percent quench),3 mM ach (acetylcholine),35.37%
same,"YFP fluorescence quenching using Facinicline, 30 nM fac",,1.24
same,"YFP fluorescence quenching using Facinicline, 300 nM fac",,46.92
same,"YFP fluorescence quenching using Facinicline, 10 uM fac",ligand Facinicline 10 uM,79.06
same,"YFP fluorescence quenching using Facinicline, 30 uM fac",,81.06
same,"YFP fluorescence quenching using TC-6987, 1 uM tc6987",,−0.14
same,"YFP fluorescence quenching using TC-6987, 3 uM tc6987",ligand TC-6987 3 uM,−8.32
same,"YFP fluorescence quenching using TC-6987, 5 uM tc6987",ligand TC-6987 5 uM,−2.13
same,"YFP fluorescence quenching using TC-6987, 10 uM tc6987",,0.13
same,"YFP fluorescence quenching using TC-6987, 30 uM tc6987",ligand TC-6987 30 uM,−6.86
same,"YFP fluorescence quenching using TC-6987, 50 uM tc6987",ligand TC-6987 50 uM,−9.5
same,"YFP fluorescence quenching using TC-6987, 100 uM tc6987",ligand TC-6987 100 uM,−10.98
same,"YFP fluorescence quenching using TC-6987, 300 uM tc6987",ligand TC-6987 300 uM,−12.16
same,"YFP fluorescence quenching using TC-6987, 500 uM tc6987",,−2.41
same,"YFP fluorescence quenching using Varenicline, 3 nM var",first column,0.398
same,"YFP fluorescence quenching using Varenicline, 3 nM var",second column,3.947
same,"YFP fluorescence quenching using Varenicline, 30 nM var",first column,5.31
same,"YFP fluorescence quenching using Varenicline, 30 nM var",second column,7.666
same,"YFP fluorescence quenching using Varenicline, 300 nM var",first column,4.327
same,"YFP fluorescence quenching using Varenicline, 300 nM var",second column,3.275
same,"YFP fluorescence quenching using Varenicline, 500 nM var",first column,1.835
same,"YFP fluorescence quenching using Varenicline, 500 nM var",second column,4.863
same,"YFP fluorescence quenching using Varenicline, 1 uM var",first column,9.471
same,"YFP fluorescence quenching using Varenicline, 1 uM var",second column,7.505

# — patent US20250152742A1, “COMPOSITIONS AND METHODS FOR NEUROLOGICAL DISEASES” (Trames Bio, Inc., priority 2022, published 2025)
